Here are results for 3 molecules from patent US9138474B2, “Composition comprising expression or activity inhibitors of Ninjurin1 for the prevention and treatment of inflammatory disease” (SNU R&DB FOUNDATION, priority 2008, dated 2015).

One assay has as its system Wnt7b expression. As to the kind of experiment: Wnt7b expression (RT-PCR) in BV2 cells expressing Myc-Ninjurin1 treated with p38 inhibitor. The settings on record: 0, 10, 30 uM, 24 hours. The class given is cell-based, rodent. The method, then:
Primary cultured human microvascular pericytes (Applied Cell Biology Research Institute) were cultured in Dulbecco's modified Eagle's medium (DMEM); Raw 264.7 cells (TIB-71™) and BV2 cells were cultured in DMEM; and HUVEC cells were cultured in M199 supplemented with 20% FBS (Invitrogen, Grand Island, N.Y.). Those cells were cultured at 37° C. in humid air composed of […] and 5% CO2. Raw cells and BV2 cells were transformed by using Lipofectamine Plus Reagent (Invitrogen). Cell lysate was prepared by using lysis buffer (40 mM Tris-Cl pH 8.4, 10 mM EDTA, 120 mM NaCl, 0.1% NP-40). To prepare culture solution to treat human microvascular pericytes, transformed macrophages were cultured in serum (FBS)-free DMEM for 24 hours, which were then filtered with 0.22 […] filter paper (Millipore), followed by 10 fold concentration using centrifugation filtering tube (Millipore). For the chemical treatment, cells were cultured at the density of 60-70% and then treated with Ang1 and Ang2 (500-1000 ng/ml) independently or together in serum free condition for 14-16 hours. To understand signal transduction pathway, cells were transformed with Mock or Ninjurin1 cDNA. Serum was depleted for 14-16 hours and then the cells were treated with SB203580 (Sigma), the p38 inhibitor, for 24 hours. […]

The subject of assay [1] is rodent originated macrophages (Raw264.7, BV2). The assay is described as follows: Wnt7b and Ninjurin1 quantified by RT-PCR in macrophages in the presence of rh-Ang1 or rh-Ang2. The assay is classed as cell-based. Particulars: 0, 1 and 2.5 ug/ml. The method, then:
Primary cultured human microvascular pericytes (Applied Cell Biology Research Institute) were cultured in Dulbecco's modified Eagle's medium (DMEM); Raw 264.7 cells (TIB-71™) and BV2 cells were cultured in DMEM; and HUVEC cells were cultured in M199 supplemented with 20% FBS (Invitrogen, Grand Island, N.Y.). Those cells were cultured at 37° C. in humid air composed of […] and 5% CO2. Raw cells and BV2 cells were transformed by using Lipofectamine Plus Reagent (Invitrogen). Cell lysate was prepared by using lysis buffer (40 mM Tris-Cl pH 8.4, 10 mM EDTA, 120 mM NaCl, 0.1% NP-40). To prepare culture solution to treat human microvascular pericytes, transformed macrophages were cultured in serum (FBS)-free DMEM for 24 hours, which were then filtered with 0.22 […] filter paper (Millipore), followed by 10 fold concentration using centrifugation filtering tube (Millipore). For the chemical treatment, cells were cultured at the density of 60-70% and then treated with Ang1 and Ang2 (500-1000 ng/ml) independently or together in serum free condition for 14-16 hours. To understand signal transduction pathway, cells were transformed with Mock or Ninjurin1 cDNA. Serum was depleted for 14-16 hours and then the cells were treated with SB203580 (Sigma), the p38 inhibitor, for 24 hours.
Particularly, RT-PCR and real time PCR were performed as follows: Transformed BV2 cells were cultured in DMEM supplemented with 1% serum for 2 days, and then RNA was extracted by using Trizol reagent (Invitrogen). Following primers were used for RT-PCR: Gapdh: forward primer 5′-[…]-3′ (SEQ. ID. NO: 4), reverse primer 5′-[…]-3′ (SEQ. ID. NO: 5); Ninjurin1: forward primer 5′-GAGTCGGGCACTGAGGA-3′ (SEQ. ID. NO: 6), reverse primer: 5′-GTTGCAGGGGTCTGGTCA-3′ (SEQ. ID. NO: 7); Ang1: forward primer 5′-[…]-3′ (SEQ. ID. NO: 8), reverse primer: 5′-[…]-3′ (SEQ. ID. NO: 9); Ang2: forward primer 5′-[…]-3′ (SEQ. ID. NO: 10), reverse primer: 5′-[…]-3′ (SEQ. ID. NO: 11); Wnt7b: forward primer 5′-[…]-3′ (SEQ. ID. NO: 12), reverse primer: 5′-[…]-3′ (SEQ. ID. NO: 13); Wnt7b: 2nd round forward primer 5′-[…]-3′ (SEQ. ID. NO: 14), reverse primer: 5′-[…]-3′ (SEQ. ID. NO: 15). The PCR products were separated on 1.2% agarose gel containing EtBr (ethidium bromide), followed by analysis by digital imaging. Primers used for real-time PCR were as follows: Ang2: forward primer 5′-[…]-3′ (SEQ. ID. NO: 16), reverse primer: 5′-[…]-3′ (SEQ. ID. NO: 17); Gapdh, Ang1 and Wnt7: same primers as used for RT-PCR were used. […]
To investigate interaction among Wnt7b, Ninjurin1, Ang1 and Ang2, Wnt7b and Ninjurin1 were quantified by RT-PCR in the presence of recombinant human Ang1 (rh-Ang1) and rh-Ang2 at different concentrations (0, 1 and 2.5 ug/ml) in rodent originated macrophages (Raw264.7, BV2).

On to `C[S+]([O-])c1ccc(-c2nc(-c3ccncc3)c(-c3ccc(F)cc3)[nH]2)cc1` (centres unmarked) [p38 inhibitor, SB203580], for which, in the assay on Wnt7b expression, the “Wnt7b expression stimulated by Ninjurin1” value is “reduced”.

B1: rh-Ang1: recombinant human Ang1 (angiopoietin-1), R&D Systems (protein, UniProt Q15389 16-498, looked up)
Angiopoietin-1: HIGCSNQRRSPENSGRRYNRIQHGQCAYTFILPEHDGNCRESTTDQYNTNALQRDAPHVEPDFSSQKLQHLEHVMENYTQWLQKLENYIVENMKSEMAQIQQNAVQNHTATMLEIGTSLLSQTAEQTRKLTDVETQVLNQTSRLEIQLLENSLSTYKLEKQLLQQTNEILKIHEKNSLLEHKILEMEGKHKEELDTLKEEKENLQGLVTRQTYIIQELEKQLNRATTNNSVLQKQQLELMDTVHNLVNLCTKEGVLLKGGKREEEKPFRDCADVYQAGFNKSGIYTIYINNMPEPKKVFCNMDVNGGGWTVIQHREDGSLDFQRGWKEYKMGFGNPSGEYWLGNEFIFAITSQRQYMLRIELMDWEGNRAYSQYDRFHIGNEKQNYRLYLKGHTGTAGKQSSLILHGADFSTKDADNDNCMCKCALMLTGGWWFDACGPSNLNGMFYTAGQNHGKLNGIKWHYFKGPSYSLRSTTMMIRPLDF
For B1, in assay [1], the Ninjurin1 expression result is “reduced” and the Wnt7b expression entry is reported as “reduced”.

B2: rh-Ang2: recombinant human Ang2 (angiopoietin-2), R&D Systems (protein, UniProt O15123 19-496, looked up)
Angiopoietin-2: YNNFRKSMDSIGKKQYQVQHGSCSYTFLLPEMDNCRSSSSPYVSNAVQRDAPLEYDDSVQRLQVLENIMENNTQWLMKLENYIQDNMKKEMVEIQQNAVQNQTAVMIEIGTNLLNQTAEQTRKLTDVEAQVLNQTTRLELQLLEHSLSTNKLEKQILDQTSEINKLQDKNSFLEKKVLAMEDKHIIQLQSIKEEKDQLQVLVSKQNSIIEELEKKIVTATVNNSVLQKQQHDLMETVNNLLTMMSTSNSAKDPTVAKEEQISFRDCAEVFKSGHTTNGIYTLTFPNSTEEIKAYCDMEAGGGGWTIIQRREDGSVDFQRTWKEYKVGFGNPSGEYWLGNEFVSQLTNQQRYVLKIHLKDWEGNEAYSLYEHFYLSSEELNYRIHLKGLTGTAGKISSISQPGNDFSTKDGDNDKCICKCSQMLTGGWWFDACGPSNLNGMYYPQRQNTNKFNGIKWYYWKGSGYSLKATTMMIRPADF
Turning to B2, in assay [1], the Ninjurin1 expression entry is reported as “increased” and the Wnt7b expression result is on record as “increased”.
